Several values for one entry are separate records, joined by “and”; a condition that tells them apart may be missing. Equal entries are not always repeated.
Legend:
[1] = biological target: CD3ε on Jurkat-NFAT responder cells (UniProt P07766 23-207); test: cell-based or functional assay
[2] = biological target: EGFR on SK-BR-3 target cells (UniProt P00533 25-1210, limits assumed); test: cell-based or functional assay
Human EGFR-his [3] = biological target: T1, Human EGFR-his (human, UniProt P00533 25-645); test: SPR, BEAT®3 captured on Protein G chip, EGFR-his as analyte; sample held at pH 11.2 for 0 h
T1 construct: Soluble his-tagged antigen injected as analyte in SPR; also called hsEGFR; not shown: his tag

Human EGFR-his [4] = biological target: T1, Human EGFR-his; test: SPR, BEAT®3 captured on Protein G chip, EGFR-his as analyte; sample held at pH 11.2 for 2 h
Human EGFR-his [5] = biological target: T1, Human EGFR-his; test: SPR, BEAT®3 captured on Protein G chip, EGFR-his as analyte; sample held at pH 11.2 for 4 h
Human EGFR-his [6] = biological target: T1, Human EGFR-his; test: SPR, BEAT®3 captured on Protein G chip, EGFR-his as analyte; sample held at pH 11.2 for 24 h
Human EGFR-his [7] = biological target: T1, Human EGFR-his; test: SPR, BEAT®3 sample captured on Protein G chip, EGFR-his as analyte; mean of 4 reference replicates
Human EGFR-his [8] = biological target: T1, Human EGFR-his; test: SPR, BEAT®3 captured on Protein G chip, EGFR-his as analyte; sample held at pH 11.2 for 0 h; mean of 2
Human EGFR-his [9] = biological target: T1, Human EGFR-his; test: SPR, BEAT®3 captured on Protein G chip, EGFR-his as analyte; sample held at pH 11.2 for 2 h; mean of 2
Human EGFR-his [10] = biological target: T1, Human EGFR-his; test: SPR, BEAT®3 captured on Protein G chip, EGFR-his as analyte; sample held at pH 11.2 for 4 h; mean of 2
Human EGFR-his [11] = biological target: T1, Human EGFR-his; test: SPR, BEAT®3 captured on Protein G chip, EGFR-his as analyte; sample held at pH 11.2 for 24 h; mean of 2
human CD38 [12] = biological target: T2, human CD38 (human, UniProt P28907 43-300, limits assumed); test: binding affinity assay; sample after S/D treatment
T2 construct: also called hsCD38; cluster of differentiation 38

human CD38 [13] = biological target: T2, human CD38; test: binding affinity assay; sample after 0.8M Arg, pH 4.0
human CD38 [14] = biological target: T2, human CD38; test: binding affinity assay; sample after 0.8M Arg, pH 5.5
human CD38 [15] = biological target: T2, human CD38; test: binding affinity assay; reference sample, no treatment
human CD38 [16] = biological target: T2, human CD38; test: binding affinity assay; sample after high pH treatment
human CD38 [17] = biological target: T2, human CD38; test: surface plasmon resonance; mean KD; high pH hold time 0 h
human CD38 [18] = biological target: T2, human CD38; test: surface plasmon resonance; mean KD; high pH hold time 1 h
human CD38 [19] = biological target: T2, human CD38; test: surface plasmon resonance; mean KD; high pH hold time 2 h
human CD38 [20] = biological target: T2, human CD38; test: binding affinity assay; sample after S/D treatment, against RS
human CD38 [21] = biological target: T2, human CD38; test: binding affinity assay; sample after 0.8M Arg, pH 4.0, against RS
human CD38 [22] = biological target: T2, human CD38; test: binding affinity assay; sample after 0.8M Arg, pH 5.5, against RS
human CD38 [23] = biological target: T2, human CD38; test: binding affinity assay; sample after high pH treatment, against RS
human CD38 [24] = biological target: T2, human CD38; test: surface plasmon resonance; mean KD; PA eluate without high pH treatment
human OX40 [25] = biological target: T3, human OX40 (human, UniProt P43489 29-214, limits assumed); test: SPR (Biacore), mean KD; Ab1 after 1 h at pH 11.2
T3 construct: The construct used in the Biacore assay is not described; also called OX40R; OX40 receptor
T3 sequence (looked up): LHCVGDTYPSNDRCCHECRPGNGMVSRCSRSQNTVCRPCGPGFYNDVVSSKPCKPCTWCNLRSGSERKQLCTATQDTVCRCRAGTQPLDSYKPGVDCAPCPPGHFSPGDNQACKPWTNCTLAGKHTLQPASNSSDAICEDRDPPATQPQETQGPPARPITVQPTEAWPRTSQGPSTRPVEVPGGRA

human FcγR3a [26] = biological target: T4, human FcγR3a (human, UniProt P08637 17-208, limits assumed); test: SPR (Biacore), mean KD; Ab1 after 1 h at pH 11.2
T4 construct: The construct and allotype (V158/F158) used in the Biacore assay are not described; also called FcgR3a
T4 sequence (P08637 17-208 limits assumed): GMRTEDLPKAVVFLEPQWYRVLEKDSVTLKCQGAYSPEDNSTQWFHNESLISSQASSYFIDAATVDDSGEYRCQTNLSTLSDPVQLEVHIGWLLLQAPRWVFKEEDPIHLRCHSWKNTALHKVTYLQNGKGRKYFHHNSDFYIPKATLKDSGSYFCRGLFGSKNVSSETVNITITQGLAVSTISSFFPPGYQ

human OX40 [27] = biological target: T3, human OX40; test: SPR (Biacore), mean KD; Ab1 after 2 h at pH 11.2
human FcγR3a [28] = biological target: T4, human FcγR3a; test: SPR (Biacore), mean KD; Ab1 after 2 h at pH 11.2
human OX40 [29] = biological target: T3, human OX40; test: SPR (Biacore), mean KD; Ab1 brought to pH 11.2 and neutralized at once (t0)
human FcγR3a [30] = biological target: T4, human FcγR3a; test: as above
human OX40 [31] = biological target: T3, human OX40; test: SPR (Biacore), mean KD; Ab1 protein A eluate without high pH treatment (reference)
human FcγR3a [32] = biological target: T4, human FcγR3a; test: as above

Chain of CD3ε on Jurkat-NFAT responder cells (P07766 23-207): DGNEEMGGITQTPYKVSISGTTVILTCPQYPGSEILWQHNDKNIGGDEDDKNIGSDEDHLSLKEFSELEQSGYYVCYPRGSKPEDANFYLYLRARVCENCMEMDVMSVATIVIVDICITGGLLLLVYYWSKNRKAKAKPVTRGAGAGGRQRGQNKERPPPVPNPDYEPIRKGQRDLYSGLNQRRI

B1: BEAT®3 (bispecific antibody, human IgG1, kappa, L234A L235A)
chain 1: EVQLVESGGGLVQPGGSLRLSCAASGFTFNTYAMNWVRQAPGKGLEWVARIRSKYNNYATYYADSVKSRFTISRDDSKNTLYLQMNSLRAEDTAVYYCVRHGNFGNSYVSYFAYWGQGTTVTVSSGGGGSGGGGSGGGGSEIVVTQSPATLSVSPGERATLSCRSSTGAVTESNYANWVQEKPGQAFRGLIGGANKRAPGVPARFSGSLSGDEATLTISSLQSEDFAVYYCALFYSNTWVFGQGTKLEIKGGGGTQVQLQESGPGLVKPSETLSLTCTVSGGSVSSGDYYWTWIRQSPGKGLEWIGHIYYSGNTNYNPSLKSRLTISIDTSKTQFSLKLSSVTAADTAIYYCVRDRVTGAFDIWGQGTMVTVSSASTKGPSVFPLAPSSKSTSGGTAALGCLVKDYFPEPVTVSWNSGALTSGVHTFPAVLQSSGLYSLSSVVTVPSSSLGTQTYICNVNHKPSNTKVDKKVEPKSCDKTHTCPPCPAPEAAGGPSVFLFPPKPKDTLMISRTPEVTCVVVDVSHEDPEVQFKWYVDGVEVHNAKTKPREEQYNSTFRVVSVLTVLHQDWLNGKEYKCKVSNKALPAPIEKTISKTKGQPREPAVYTLPPSREEMTKNQVKLVCLVTGFYPSDIAVEWESSGQPENNYYTTPPMLDSDGSFSLVSWLNVDKSRWQQGNIFSCSVMHEALHNRFTQKSLSLSPG
chain 2: not shown
chain 3: DKTHTCPPCPAPEAAGGPSVFLFPPKPKDTLMISRTPEVTCVVVDVSHEDPEVKFNWYVDGVEVHNAKTKPREEQYNSTYRVVSVLTVLHQDWLNGKEYKCKVSNKALPAPIEKTISKAKGQPREPEVATFPPSRDELTKNQVTLVCLVTGFYPSDIAVEWESNGQPENNYKTDPPLLESDGSFALSSRLRVDKSRWQQGNVFSCSVMHEALHNHYTQKSLSLSPG
Relative potency (%) (Jurkat-NFAT luciferase reporter, EC50reference/EC50sample x 100, reference High pH t0) [1]: 97% and 85% and 67%
Relative potency (%) (Jurkat-NFAT luciferase reporter, EC50reference/EC50sample x 100, reference High pH t0) [2]: 97% and 85% and 67%
Relative KD R1 (Human EGFR-his [3]): 0.988 ratio to reference
Relative KD R1 (Human EGFR-his [4]): 1.02 ratio to reference
Relative KD R1 (Human EGFR-his [5]): 1.11 ratio to reference
Relative KD R1 (Human EGFR-his [6]): 1.17 ratio to reference
Average rel KD (Human EGFR-his [7]): 1 ratio to reference
Average rel KD (Human EGFR-his [8]): 0.98 ratio to reference
Average rel KD (Human EGFR-his [9]): 1.02 ratio to reference
Average rel KD (Human EGFR-his [10]): 1.09 ratio to reference
Average rel KD (Human EGFR-his [11]): 1.15 ratio to reference

B2: BEAT®2 (bispecific antibody, human IgG1, kappa, L234A L235A)
chain 1: not shown
chain 2: QVTLKESGPTLVKPTQTLTLTCTFSGLSLSTSGKGVGWIRQPPGKALEWLAHIWWDDDKRYNPALKSRLTITKDTSKNQVVLTMTNMDPVDTATYYCARIELGRSYVMDYWGQGTLVTVSSASTKGPSVFPLAPSSKSTSGGTAALGCLVKDYFPEPVTVSWNSGALTSGVHTFPAVLQSSGLYSLSSVVTVPSSSLGTQTYICNVNHKPSNTKVDKKVEPKSCDKTHTCPPCPAPEAAGGPSVFLFPPKPKDTLMISRTPEVTCVVVDVSHEDPEVQFKWYVDGVEVHNAKTKPREEQYNSTFRVVSVLTVLHQDWLNGKEYKCKVSNKALPAPIEKTISKTKGQPREPAVYTLPPSREEMTKNQVKLVCLVTGFYPSDIAVEWESSGQPENNYYTTPPMLDSDGSFSLVSWLNVDKSRWQQGNIFSCSVMHEALHNRFTQKSLSLSPG
chain 3: not shown
Kd (human CD38 [12]): 0.341 nM
koff (human CD38 [12]): 0.000376 s⁻¹
kon (human CD38 [12]): 1.11e+06 M⁻¹ s⁻¹
Kd (human CD38 [13]): 0.507 nM
koff (human CD38 [13]): 0.000521 s⁻¹
kon (human CD38 [13]): 1.03e+06 M⁻¹ s⁻¹
Kd (human CD38 [14]): 0.439 nM
koff (human CD38 [14]): 0.000459 s⁻¹
kon (human CD38 [14]): 1.05e+06 M⁻¹ s⁻¹
% deviation EC50 (human CD38 [15]): 0%
Kd (human CD38 [15]): 0.442 nM
koff (human CD38 [15]): 0.000457 s⁻¹
kon (human CD38 [15]): 1.03e+06 M⁻¹ s⁻¹
Kd (human CD38 [16]): 0.467 nM
koff (human CD38 [16]): 0.000483 s⁻¹
kon (human CD38 [16]): 1.04e+06 M⁻¹ s⁻¹
Kd (human CD38 [17]): 0.504 nM
Kd (human CD38 [18]): 0.547 nM
Kd (human CD38 [19]): 0.485 nM
% deviation EC50 (human CD38 [20]): -15.4%
% deviation EC50 (human CD38 [21]): 3.5%
% deviation EC50 (human CD38 [22]): 0.7%
% deviation EC50 (human CD38 [23]): 1.7%
Kd (human CD38 [24]): 0.483 nM

B3: Ab1 (antibody, human IgG1, kappa)
chain 1: not shown
chain 2: EIVLTQSPATLSLSPGERATLSCRASSSVSYMHWYQQKPGQAPRPWIYATSNRATGIPARFSGSGSGTDYTLTISSLEPEDFAVYYCQQWSSNPWTFGQGTKVEIKRTVAAPSVFIFPPSDEQLKSGTASVVCLLNNFYPREAKVQWKVDNALQSGNSQESVTEQDSKDSTYSLSSTLTLSKADYEKHKVYACEVTHQGLSSPVTKSFNRGEC
notes: The samples PA eluate, t0, t1 and t2 are the same antibody before and after incubation at pH 11.2 for 0, 1 and 2 h; also called humanized IgG1; PA eluate
Kd (human OX40 [25]): 207 nM
Kd (human FcγR3a [26]): 744 nM
Kd (human OX40 [27]): 224 nM
Kd (human FcγR3a [28]): 638 nM
Kd (human OX40 [29]): 229 nM
Kd (human FcγR3a [30]): 760 nM
Kd (human OX40 [31]): 198 nM
Kd (human FcγR3a [32]): 689 nM
